# Measurements reported in article PMC11374688.
# Legend:
# [1] = biological target: S. pombe Ubc4(C21S/C107S) (S. pombe) (UniProt P46595)
# [2] = biological target: Ub(T): S. pombe Ub residues 1–74 extended with Gly–PSAN (Ub-PSAN), as cyanomethyldithioacetal in the complexes (S. pombe) (UniProt P0CG72)
# UniProt P0CG72, sequence (P0CG72 1-74, one chain of several): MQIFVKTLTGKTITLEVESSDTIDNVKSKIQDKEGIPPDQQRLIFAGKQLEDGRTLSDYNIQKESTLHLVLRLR
# S. pombe Ubc4(C21S/C107S) (S. pombe), sequence (P46595 whole entry C21S/C107S, the tested form may be a part): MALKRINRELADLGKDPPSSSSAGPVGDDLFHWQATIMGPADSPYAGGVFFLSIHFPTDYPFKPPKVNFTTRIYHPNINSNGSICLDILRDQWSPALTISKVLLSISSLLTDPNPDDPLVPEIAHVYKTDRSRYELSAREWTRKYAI
binder,measurement,setting,value
S. pombe Pub2^HECT (295–671) F640A (domain or fragment) DEYQRKIAYMYDRPEMAVNDAQLQLKVSRATTFEDAYDIISKLSVSDMKKKLLIRFRNEDGLDYGGVSREFFYILSHAIFNPGYSLFEYATDDNYGLQISPLSSVNPDFRSYFRFVGRVMGLAIYHRRYLDVQFVLPFYKRILQKPLCLEDVKDVDEVYYESLKWIKNNDVDESLCLNFSVEENRFGESVTVDLIPNGRNIAVNNQNKMNYLKALTEHKLVTSTEEQFNALKGGLNELIPDSVLQIFNENELDTLLNGKRDIDVQDWKRFTDYRSYTETDDIVIWFWELLSEWSPEKKAKLLQFATGTSRLPLSGFKDMHGSDGPRKFTIEKVGHISQLPKAHTCANRLDIPPYNSKEELEQKLTIAIQETAGFGTE,"E2~Ub(T)-to-E3^HECT pulse–chase transthiolation, fold loss of activity against wild type",[1],30 fold
same,"E2~Ub(T)-to-E3^HECT pulse–chase transthiolation, fold loss of activity against wild type",[2],30 fold
